The record followed here is paper PMC4154663, “Bipartite Recognition of DNA by TCF/Pangolin Is Remarkably Flexible and Contributes to Transcriptional Responsiveness and Tissue Specificity of Wingless Signaling”.

The series addresses T1, TCF/Pangolin HMG + C-clamp fragment (UniProt P91943 273-400).
T1 sequence: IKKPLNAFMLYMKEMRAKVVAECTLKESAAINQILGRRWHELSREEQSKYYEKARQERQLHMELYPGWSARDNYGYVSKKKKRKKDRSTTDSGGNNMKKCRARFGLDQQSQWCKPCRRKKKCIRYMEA
As to the kind of experiment: competition EMSA; labeled AK6 probe; 10 mM Tris-HCl pH 7.5, 50 mM KCl, 1 mM DTT, 50 mM MgCl2 (so in the source), 0.05% NP40, 3.5% glycerol, 50 ug/ml poly(dIdC); 6 pmol protein, 0-2.4 pmol competitor, 20. As to conditions: protein: recombinant, tags: His (pET52b(+), XmaI/SacI), blunt.

B1: AK6 competitor (dsDNA)
DNA 1: TACGATAAGATCAAAGGTGCAGTGCCGCCAGTCGTA
DNA 2: TACGACTGGCGGCACTGCACCTTTGATCTTATCGAC
As for B1, the IC50 (printed reverse strand is mismatched at its last 2 nt (atcgac vs atcgta)) was determined as 5.1 nM.

B2: KK6 competitor (dsDNA)
DNA 1: TACGATCCTTTGATCTTTGCAGTTGGCGGCGTCGTA
DNA 2: TACGACGCCGCCAACTGCAAAGATCAAAGGATCGTA
Regarding B2, the IC50 came to 99.7 nM.

B3: RW0 competitor (dsDNA)
DNA 1: TGGTACGATAAGATCAAAGGTGGCGGCGTCGTACAC
DNA 2: GTGTACGACGCCGCCACCTTTGATCTTATCGTACCA
Take B3: the IC50 is 189 nM.

B4: FF0 competitor (dsDNA)
DNA 1: TGGTACGATCCTTTGATCTTGCCGCCAGTCGTACAC
DNA 2: GTGTACGACTGGCGGCAAGATCAAAGGATCGTACCA
For B4, the IC50 is 9.4 nM.
